Reference: patent US20120039904A1 (Kyowa Kirin, published 2012)
Residue numbers refer to the chain shown, from its start.

Tests used:
[1] = target: T1, human ASCT2 (system ASC amino acid transporter 2), endogenous on human tumour cell lines (human, UniProt Q15758 1-541); assay: flow cytometry on KMS-11 cells
T1 construct: Endogenous ASCT2 of cell lines KMS-11 (stated to express ASCT2 mRNA), WiDr and OPM-2; also called SLC1A5; ASCT2 on KMS-11, OPM-2, WiDr cells
T1 sequence: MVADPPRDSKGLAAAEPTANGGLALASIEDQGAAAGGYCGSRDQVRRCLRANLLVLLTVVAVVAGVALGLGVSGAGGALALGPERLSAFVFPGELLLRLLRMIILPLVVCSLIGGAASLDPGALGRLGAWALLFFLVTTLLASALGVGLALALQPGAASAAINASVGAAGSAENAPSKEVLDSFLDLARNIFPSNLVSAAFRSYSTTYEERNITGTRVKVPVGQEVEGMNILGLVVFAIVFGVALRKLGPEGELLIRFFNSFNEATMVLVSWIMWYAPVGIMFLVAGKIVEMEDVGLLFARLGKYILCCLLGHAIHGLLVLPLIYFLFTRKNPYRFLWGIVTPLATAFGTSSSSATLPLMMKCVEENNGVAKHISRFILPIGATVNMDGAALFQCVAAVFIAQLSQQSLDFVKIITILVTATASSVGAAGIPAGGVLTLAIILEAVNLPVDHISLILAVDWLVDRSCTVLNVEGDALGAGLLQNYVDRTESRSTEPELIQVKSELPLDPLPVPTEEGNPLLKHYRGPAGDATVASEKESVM

[2] = target: T2, human ASCT2-myc/His (fusion protein in which myc/His was added to the C-terminal of human ASCT2), expressed … (human, UniProt Q15758 1-541); assay: flow cytometry on human ASCT2/CHO cells; '+' = presence of reactivity
T2 construct: Amino acid transporter with C-terminal myc/His tag, stably expressed in CHO/DG44 cells; cell lysates of these cells were used for Western blotting and immunoprecipitation; also called ASCT2/CHO; human ASCT2-myc/His gene-introduced CHO cell
T2 sequence: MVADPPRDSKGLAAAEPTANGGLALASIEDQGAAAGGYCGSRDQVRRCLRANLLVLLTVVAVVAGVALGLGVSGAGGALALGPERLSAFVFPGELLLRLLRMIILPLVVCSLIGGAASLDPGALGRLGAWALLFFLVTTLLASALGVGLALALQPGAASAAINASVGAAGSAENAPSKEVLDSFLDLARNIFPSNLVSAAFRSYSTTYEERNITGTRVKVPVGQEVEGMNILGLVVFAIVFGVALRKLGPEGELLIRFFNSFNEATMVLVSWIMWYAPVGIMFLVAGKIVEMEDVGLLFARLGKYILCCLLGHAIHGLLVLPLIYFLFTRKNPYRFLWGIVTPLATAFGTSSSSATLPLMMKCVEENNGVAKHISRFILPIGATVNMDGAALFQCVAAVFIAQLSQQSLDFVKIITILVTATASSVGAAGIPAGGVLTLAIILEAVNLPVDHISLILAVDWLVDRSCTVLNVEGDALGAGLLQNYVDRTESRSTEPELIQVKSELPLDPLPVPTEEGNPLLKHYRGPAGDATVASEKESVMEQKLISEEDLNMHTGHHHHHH

[3] = target: T3, mouse EL4 type ASCT2-myc/His (mouse/human chimeric ASCT2), expressed on CHO cells (human/mouse chimera, UniProt Q15758 1-541); assay: flow cytometry on mEL4/CHO cells; '+' = presence of reactivity
T3 construct: also called mEL4/CHO; mEL4
T3 sequence: T2 sequence with N367K
Experimental: (§1) Using the mouse ASCT2/CHO and mouse/human chimeric ASCT2/CHO cells constructed in Examples 10 and 11 and FITC-labeled anti-mouse immunoglobulin G (H+L) (manufactured by Dako) or ALEXA488-labeled anti-rat immunoglobulin G […] (manufactured by Invitrogen) as the secondary antibody, the reactivity of anti-ASCT2 monoclonal antibodies KM4008, KM4012 and KM4018 was measured in the same manner as in Example 9(1).
(§2) In Table 2, the symbols “+”, “−”, and “±” represent the presence of reactivity, the absence of reactivity, and the decrease in reactivity, respectively.

[4] = target: T4, mouse EL2 type ASCT2-myc/His (mouse/human chimeric ASCT2), expressed on CHO cells (human/mouse chimera); assay: flow cytometry on mEL2/CHO cells; '-' represents the absence of reactivity
T4 construct: also called mEL2/CHO; mEL2
T4 chain: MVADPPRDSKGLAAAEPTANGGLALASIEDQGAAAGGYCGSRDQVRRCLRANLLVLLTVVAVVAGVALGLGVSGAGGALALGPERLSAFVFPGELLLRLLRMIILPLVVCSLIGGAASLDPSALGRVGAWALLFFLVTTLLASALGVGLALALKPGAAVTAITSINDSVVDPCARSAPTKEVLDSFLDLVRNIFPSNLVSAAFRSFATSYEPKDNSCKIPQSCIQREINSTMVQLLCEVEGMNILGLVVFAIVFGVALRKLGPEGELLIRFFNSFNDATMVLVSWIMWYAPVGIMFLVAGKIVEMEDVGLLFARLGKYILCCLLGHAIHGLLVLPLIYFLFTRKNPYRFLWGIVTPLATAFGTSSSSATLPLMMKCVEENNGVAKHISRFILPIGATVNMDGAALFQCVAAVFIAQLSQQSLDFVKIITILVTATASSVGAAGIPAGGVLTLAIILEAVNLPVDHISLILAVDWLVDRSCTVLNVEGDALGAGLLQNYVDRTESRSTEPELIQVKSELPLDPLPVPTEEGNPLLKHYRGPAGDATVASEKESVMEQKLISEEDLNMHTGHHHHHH
Experimental: as §1, §2

[5] = target: T5, mouse ASCT2-myc/His, expressed on CHO cells (mouse, UniProt P51912 1-553); assay: flow cytometry on mouse ASCT2/CHO cells; '-' represents the absence of reactivity
T5 construct: also called mouse ASCT2/CHO
T5 sequence: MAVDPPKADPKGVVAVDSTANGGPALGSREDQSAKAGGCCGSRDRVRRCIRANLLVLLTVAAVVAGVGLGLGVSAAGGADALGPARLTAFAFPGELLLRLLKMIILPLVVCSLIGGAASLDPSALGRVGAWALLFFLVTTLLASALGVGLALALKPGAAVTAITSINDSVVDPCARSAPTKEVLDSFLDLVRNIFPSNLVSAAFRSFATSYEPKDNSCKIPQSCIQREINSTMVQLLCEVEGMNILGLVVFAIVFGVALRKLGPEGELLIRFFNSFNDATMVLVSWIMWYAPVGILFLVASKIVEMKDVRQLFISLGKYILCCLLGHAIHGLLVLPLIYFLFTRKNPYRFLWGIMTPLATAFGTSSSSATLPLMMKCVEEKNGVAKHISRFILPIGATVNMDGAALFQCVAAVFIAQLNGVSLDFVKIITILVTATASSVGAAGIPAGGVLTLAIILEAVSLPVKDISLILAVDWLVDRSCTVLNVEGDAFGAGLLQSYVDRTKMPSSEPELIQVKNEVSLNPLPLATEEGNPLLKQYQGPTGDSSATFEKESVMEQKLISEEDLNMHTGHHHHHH
Experimental: as §1, §2

B1: anti-ASCT2 monoclonal antibody KM4018 (antibody, rat IgG2a, V domains shown)
VH: EVQLVESGGGLVQSGRSIRLSCAASGFSFSNYYMAWVRQAPSKGLEWVASITKGGGNTYYRDSVKGRFTFSRDNAKSTLYLQMDSLRSEDTATYYCARQVTIAAVSTSYFDSWGQGVMVTVSS
VL: DIVLTQSPALAVSLGQRATISCKTNQKVDYYGNSYVYWYQQKPGQQPKLLIYLASNLASGIPARFSGRGSGTDFTLTIDPVEADDTATYYCQQSRNLPYTFGAGTKLELKR
notes: rat IgG2a, kappa
- binding result [1]: binds
- binding result [2]: binds
- binding result [3]: binds
- binding result [4]: no binding
- binding result [5]: no binding
